Assay results reported in patent US5382658A, “Stability-enhanced variants of parathyroid hormone” (Allelix Biopharmaceuticals Inc., priority 1992, dated 1995).
Like-named read-outs stand apart in the source and are kept apart here.

Tests used:
[1] = system: adenylate cyclase activity in UMR-106 rat osteosarcoma cells; test: UMR-106 based adenylate cyclase assay (cAMP formation); type: cell-based; settings: for EC50: UMR-106 cells, untreated samples, read-out: EC50, concentration effective for half-maximal stimulation of adenylate cyclase activity; for potency relative to hPTH (in words): UMR-106 adenylate cyclase assay
Description: In the present specification, PTH activity is defined in the context of the osteosarcoma-based adenylate cyclase assay employed conventionally in the art. Briefly, this assay provides an in vitro determination of the extent to which PTH stimulates adenylate cyclase activity in rat osteosarcoma cells of the `UMR` lineage, and thus provides an indication of PTH effects on bone tissue in vivo. Protocols for conducting the assay have been described by Rodan et al, 1983, J. Clin. Invest., 72:1511 (in which the osteosaracoma cells of the ROS lineage are employed) and by Rabbani et al, 1988, Endocrinol., 123:2709 (which employs the line UMR-106). […] The term EC50 refers to the concentration of PTH or variant effective for half-maximal stimulation of adenylate cyclase activity.
Thawed or fresh samples of human PTH(1-84) and of PTH variants obtained as described above were then evaluated for biological activity using a UMR-106 based adenylate cyclase assay and the protocol as described by Rabbini et al, 1988, Endocrinology, 123:2709, which is incorporated herein by reference. As noted, rat osteosarcoma cells of the UMR line are stimulated by PTH to produce adenylate cyclase, an enzyme which catalyzes intracellular conversion of ATP to its cylic monophosphate analogue, cAMP. In this assay therefore, PTH activity is determined by assaying radiometrically the formation of cAMP in PTH-stimulated UMR cells. The results of the assays, expressed in terms of EC50 (concentration of PTH or variant effective for half-maximal stimulation of adenylate cyclase activity), are presented in the table below: […]

[2] = Trypsin sensitivity: trypsin or mock incubation followed by UMR-106 adenylate cyclase assay; settings: UMR-based adenylate cyclase assay after trypsin incubation under the exemplified conditions; read-out: EC50 following trypsin incubation
Experimental: PTH variants having an "improved stability in the presence of trypsin" are degraded by trypsin at a rate that is slower than a similarly treated native PTH control. An assay suitable for identifying a reduced tryptic digestion rate entails a two step procedure, in which a PTH variant and a native PTH control are separately incubated with trypsin for a defined period, and are then assayed for activity in the osteosarcoma-based assay just described. Protocols suitable for assaying trypsin sensitivity are described in the literature and are outlined in the examples herein.
To measure the sensitivity of a compound (native PTH or variants) to digestion with trypsin, duplicate incubations were established for each compound in either the presence of trypsin ("Trypsin Incubation") or the absence of trypsin ("Mock Incubation"). For example, a lyophilized aliquot of PTH (or variant) was solubilized for 20 minutes at room temperature in 10 mM acetic acid at a final concentration of 1 mg/mL (50 μg PTH or variant plus 50 μL 10 mM acetic acid). […] The appearance of the cleavage product was monitored as a function of time at 253 nm. […]
Parallel trypsin and mock incubations were established as follows. […] Dose-response curves were generated and the relevant EC50 values were calculated. […]

ovariectomized rat = test: Ovariectomized rat model of osteoporosis, total skeletal calcium scan; type: in vivo; settings: subcutaneous, once daily for 28 days, human PTH 150 μg/kg, variant dosed at 25 and 150 μg/kg, dose of the reported result not stated
Experimental: The P2 variant was also evaluated in vivo for its effect on skeletal tissue, in an ovariectomized rat model of osteoporosis. Formulations of the P2 variants were first prepared by reconstituting the P2 variant from lyophilized powder in 0.1M acetic acid, then diluting to 10 mM acetic acid by addition of normal saline vehicle and 2% (v/v) heat-inactivated rat serum, to generate a stock solution containing the variant at a concentration of about 150 μg/ml. The P2 formulation was then injected subcutaneously at the neck region, in selected volumes representing dosage sizes of 25 μg/kg and 150 μg/kg (8 rats/each dose). A third group of rats received human PTH at a dose of 150 μg/kg and a fourth group received vehicle alone. Treatment regimen consisted of single dose administration once daily for 28 days.
After treatment, the rats were sacrificed and evaluated by total skeletal calcium scan. Relative to rats receiving vehicle alone, the whole body calcium scanning results indicated an improvement in rats receiving human PTH (5.8% increase), and a still further improvement (9.6% increase) in rats receiving the [His^25 His^26 Leu^27 ] variant. It is believed that enhanced effects of this variant result from its greater half-life in vivo i.e. its resistant to serum-borne trypsin and/or other enzymes which otherwise degrade and/or inactivate the native hormone.

trypsin [3] = system: trypsin
trypsin [4] = test: Trypsin degradation time course quantified by SDS-PAGE gel scanning

EC50 [1] [nM] | EC50 [2] [nM] | Molecule | increase in whole body calcium relative to rats receiving vehicle alone (ovariectomized rat) [%] | Half-Life (from SDS-PAGE analysis) (trypsin [3]) [min] | potency relative to hPTH (in words) [1] | Half-Life (from SDS-PAGE analysis) (trypsin [4]; Trypsin:PTH = 1:500 (w/w), room temperature, time when Pt/Po = 0.5) [min] | initial material remaining (intact) (trypsin [4]; after 240 minutes, trypsin:PTH 1:500 (w/w)) | resistance to proteolysis by trypsin (in words) (trypsin [4]; trypsin to PTH ratio of 1:500 (w/w))
1 | ~12 | human PTH(1-84) [hPTH, reference compound] | 5.8 | 25 ± 5 |  |  |  | 
2 |  | [His^25 ]hPTH (protein, UniProt P01270 32-115, looked up, variant R25H) Parathyroid hormone: SVSEIQLMHNLGKHLNSMERVEWLHKKLQDVHNFVALGAPLAPRDAGSQRPRKKEDNVLVESHEKSLGEADKADVNVLTKAKSQ |  | 27 ± 7 | substantially equipotent |  |  | 
1.7 |  | [His^25 His^26 Leu^27 ]hPTH (protein, UniProt P01270 32-115, looked up, variant R25H K26H K27L) Parathyroid hormone: SVSEIQLMHNLGKHLNSMERVEWLHHLLQDVHNFVALGAPLAPRDAGSQRPRKKEDNVLVESHEKSLGEADKADVNVLTKAKSQ | 9.6 |  | substantially equipotent | > 240 | more than 60% | almost completely resistant to proteolysis
